Test results as given in the supplement of paper PMC10724198.

Assays:
Saccharomyces cerevisiae [1] = experiment: protein stability index of tFT-peptide fusion in wild type (PSI (0-1 scale)); higher = more stable (slower turnover); conditions: genetic background: wild type
Experimental: (§1)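 MPS profiling in S. cerevisiae of two library types built from selected 12-aa C-degron peptides (IN1, IN2, LN1, LN3, VN2, R1-R5, W1-W3, Atg1 and Rpa12 C-termini): saturation mutagenesis libraries and C-terminal +1 capping libraries (13 aa). Each peptide is fused to the C-terminus of a sfGFP-mCherry timer, after a GGGS linker. Cells are FACS-sorted into 8 mCherry/sfGFP bins and sequenced. PSI runs from 0 (unstable) to 1 (stable), measured once in wild type and in the das1Δ or doa10Δ background.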

Saccharomyces cerevisiae [2] = experiment: protein stability index of tFT-peptide fusion in deletion strain of DAS1 (PSI (0-1 scale)); higher = more stable (slower turnover)
Experimental: as §1
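For protein stability index of tFT-peptide fusion in deletion strain of DAS1 in this document: PSI is a weighted mean of each variant's read distribution over the sorted stability bins, computed only for variants having over 10 reads in total.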
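For protein stability index of tFT-peptide fusion in wild type in this document: PSI derived as read-weighted mean over the 8 sorting bins, only variants exceeding 10 total reads kept, mCherry placed adjacent to the peptide and sfGFP distal.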

Sequence | protein stability index (Saccharomyces cerevisiae [1]) | protein stability index (Saccharomyces cerevisiae [2])
KKHKRGQKQKIN | 0.0579 | 0.617
KKHNKGQKQKIN | 0.0428 | 0.645
KKHVKGQKQKIN | 0.0752 | 0.606
LAILRQKMNHQN | 0.137 | 0.67
LHVYLSCVACIN | 0.0172 | 0.109
LKIARQKMNHQN | 0.277 | 0.694
LKIDRQKMNHQN | 0.241 | 0.676
LKILNQKMNHQN | 0.395 | 0.688
LKILRQKANHQN | 0.373 | 0.688
LKILRQKMNFQN | 0.225 | 0.674
LKILRQKMNHCN | 0.191 | 0.669
LKILRQKMNHQNV | 0.669 | 0.662
LKILRQKMNHQY | 0.274 | 0.684
LKILRQKMNPQN | 0.689 | 0.677
LKILRQKMNQQN | 0.218 | 0.676
LKILRQKMNYQN | 0.219 | 0.657
LKILRQKMVHQN | 0.19 | 0.657
LKILRQNMNHQN | 0.255 | 0.667
LKILRTKMNHQN | 0.178 | 0.678
LKMLRQKMNHQN | 0.171 | 0.683
LMILRQKMNHQN | 0.166 | 0.676
LQVYLSCVACIN | 0.0249 | 0.0994
LRVYLSCVACIN | 0.0194 | 0.121

Sequence | protein stability index (Saccharomyces cerevisiae [1]) | protein stability index (Saccharomyces cerevisiae [2])
LTSCGYKFRTNN | 0.197 | 0.666
LVCYLSCVACIN | 0.0123 | 0.0279
LVHYLSCVACIN | 0.0263 | 0.188
LVTYLSCVACIN | 0.0357 | 0.167
LVVRLSCVACIN | 0.0177 | 0.0347
LVVTLSCVACIN | 0.0146 | 0.0408
LVVYLFCVACIN | 0.0137 | 0.0277
LVVYLMCVACIN | 0.0154 | 0.0335
LVVYLSCDACIN | 0.144 | 0.191
LVVYLSCGACIN | 0.283 | 0.3
LVVYLSCVACIA | 0.0168 | 0.0258
LVVYLSCVACIK | 0.0121 | 0.0213
LVVYLSCVACIL | 0.0189 | 0.032
LVVYLSCVACINC | 0.0649 | 0.0918
LVVYLSCVACINR | 0.0215 | 0.034
LVVYLSCVACINW | 0.0246 | 0.0403
LVVYLSCVACWN | 0.0216 | 0.0568
LVVYLSCVAPIN | 0.457 | 0.449
LVVYLSCVGCIN | 0.244 | 0.293
LVVYLSCVNCIN | 0.135 | 0.419
LVVYLSCVRCIN | 0.109 | 0.335
LVVYLSCVYCIN | 0.0441 | 0.158
LVVYLSCWACIN | 0.02 | 0.0504

Sequence | protein stability index (Saccharomyces cerevisiae [1]) | protein stability index (Saccharomyces cerevisiae [2])
LVVYLSCYACIN | 0.0136 | 0.0478
LVVYLSQVACIN | 0.0161 | 0.0854
LVVYLVCVACIN | 0.0125 | 0.0307
MTSCGYKFRTNN | 0.212 | 0.688
NRGAVGGWRLVG | 0.164 | 0.665
PDARNHLIKLLN | 0.12 | 0.612
PDKDNHLIKLLN | 0.281 | 0.568
PDKENHLIKLLN | 0.265 | 0.602
PDKHNHLIKLLN | 0.0998 | 0.622
PDKNNHLIKLLN | 0.242 | 0.757
PDKRNHEIKLLN | 0.447 | 0.596
PDKRNHLFKLLN | 0.112 | 0.609
PDKRNHLIKALN | 0.252 | 0.589
PDKRNHLIKLHN | 0.359 | 0.593
PDKRNHLIKLLH | 0.154 | 0.612
PDKRNHLIKLLNC | 0.124 | 0.663
PDKRNHLIKLLNF | 0.176 | 0.67
PDKRNHLIKLLNI | 0.216 | 0.662
PDKRNHLIKLLP | 0.595 | 0.596
PDKRNHLIKLLT | 0.205 | 0.622
PDKRNHLIKLLW | 0.578 | 0.586
PDKRNHLIKLSN | 0.486 | 0.609
PDKRNHLIKLTN | 0.292 | 0.568

Sequence | protein stability index (Saccharomyces cerevisiae [1]) | protein stability index (Saccharomyces cerevisiae [2])
PDKRNHLIKNLN | 0.473 | 0.54
PDKRNHLIKQLN | 0.0992 | 0.575
PDKRNHLINLLN | 0.113 | 0.605
PDKRNMLIKLLN | 0.0899 | 0.722
PDKRNRLIKLLN | 0.141 | 0.592
PDKRTHLIKLLN | 0.0881 | 0.655
PDKTNHLIKLLN | 0.144 | 0.658
PDRRNHLIKLLN | 0.118 | 0.664
PDSRNHLIKLLN | 0.125 | 0.6
PHKRNHLIKLLN | 0.141 | 0.694
PILAASFWRVVG | 0.145 | 0.678
PKKRNHLIKLLN | 0.149 | 0.596
PMKRNHLIKLLN | 0.069 | 0.569
PRKRNHLIKLLN | 0.141 | 0.633
PSLAAEFWRVVG | 0.168 | 0.697
PSLAASEWRVVG | 0.535 | 0.703
PSLAASFMRVVG | 0.531 | 0.681
PSLAASFWAVVG | 0.601 | 0.686
PSLAASFWHVVG | 0.46 | 0.691
PSLAASFWQVVG | 0.465 | 0.692
